± gives the standard deviation of the averaged measurements.
B1: library; a variant is named by its letters at N, in order (parent)
chain: GCUGUCACCGGUGCUUGGUACGUUAUAUUCAGCCGGUCUGAUGAGUCUNNNNNNAGACGAAACAGC

Key:
(6R,S)-folinic acid [1] = variants of: B1; assay: normalized RNA/DNA level without ligand (relative to sTRSVctl = 100) (log10 (% of sTRSVctl)); HEK293T overexpressing SLC46A1; higher = less ribozyme self-cleavage, higher mRNA level; settings: without (6R,S)-folinic acid; ligand present: no
Procedure, shortened: (§1)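 Library plasmids carrying ribozyme switches linked to mCherry, or to eGFP in some ligand experiments, were transfected into HEK293T at 4 µg per 6-well well, with any ligand added 1 h earlier. Seventy-two hours on, total RNA was extracted with EDTA and reverse-transcribed, amplified, barcoded and sequenced. RNA level was RNA over DNA reads normalized to a spiked-in non-cleaving sequence or to the top sequences, then scaled and log-transformed. The top set was 25 sequences, the transform was ×100 and log10, and sequences needed ≥100 DNA reads.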

(6R,S)-folinic acid [2] = variants of: B1; assay: normalized RNA/DNA level with ligand (relative to sTRSVctl = 100) (log10 (% of sTRSVctl)); HEK293T overexpressing SLC46A1; ligand concentration (+) RNA-Seq: 6 mM; higher = less ribozyme self-cleavage, higher mRNA level; settings: with (6R,S)-folinic acid; ligand present: yes
Procedure, shortened: as §1

Variant | normalized RNA/DNA level without ligand (log10) ((6R,S)-folinic acid [1]) | normalized RNA/DNA level with ligand (log10) ((6R,S)-folinic acid [2])
CAAAUA | 1.95 ± 0.01 | 1.99 ± 0.025
UAAAUA | 1.952 ± 0.014 | 2 ± 0.034
CAAAUC | 2.05 ± 0.026 | 2.02 ± 0.047
AAAAUC | 2.051 ± 0.0098 | 2.01 ± 0.023
GAAAUC | 2.044 ± 0.0097 | 2.027 ± 0.018
UAAAUC | 2.06 ± 0.0029 | 2.06 ± 0.045
CAAAUG | 2.007 ± 0.0091 | 2.007 ± 0.017
AAAAUG | 1.935 ± 0.013 | 2.02 ± 0.024
CAAAUU | 2.011 ± 0.0089 | 2.03 ± 0.027
GAAAUU | 2.03 ± 0.0031 | 2.05 ± 0.025
UAAAUU | 1.984 ± 0.011 | 2.017 ± 0.02
CAACAA | 1.966 ± 0.015 | 1.99 ± 0.032
CAACAC | 2.0222 ± 0.00082 | 2.014 ± 0.019
GAACAC | 1.998 ± 0.018 | 2.014 ± 0.0037
CAACAG | 1.976 ± 0.00034 | 2.01 ± 0.062
CAACAU | 1.978 ± 0.0086 | 2.02 ± 0.057
GAACAU | 1.9736 ± 0.0012 | 2.01 ± 0.035
UAACAU | 1.956 ± 0.016 | 2 ± 0.023
CAACCA | 2.032 ± 0.015 | 2.019 ± 0.013
GAACCA | 2.0209 ± 0.0019 | 2.01 ± 0.037
CAACCC | 2.073 ± 0.0092 | 2.03 ± 0.079
GAACCC | 2.02 ± 0.018 | 2.017 ± 0.0044
AAACCC | 2.048 ± 0.0094 | 2.032 ± 0.0089
UAACCC | 1.991 ± 0.011 | 2 ± 0.035

Variant | normalized RNA/DNA level without ligand (log10) ((6R,S)-folinic acid [1]) | normalized RNA/DNA level with ligand (log10) ((6R,S)-folinic acid [2])
CAACCG | 2.0386 ± 0.00089 | 2.04 ± 0.02
GAACCG | 2.018 ± 0.017 | 2.03 ± 0.038
AAACCG | 1.97 ± 0.0043 | 2 ± 0.029
CAACCU | 2.051 ± 0.012 | 2.05 ± 0.035
AAACCU | 2.0232 ± 0.0015 | 2.03 ± 0.031
UAACCU | 2.01 ± 0.024 | 2.018 ± 0.0082
CAACGC | 2.025 ± 0.011 | 2.02 ± 0.038
AAACGC | 1.996 ± 0.006 | 2.01 ± 0.032
CAACGG | 1.9202 ± 0.00028 | 1.976 ± 0.0039
CAACGU | 2.024 ± 0.0058 | 2.037 ± 0.019
GAACGU | 1.988 ± 0.0095 | 2 ± 0.027
UAACGU | 1.95 ± 0.028 | 2.003 ± 0.013
CAACUA | 2.01 ± 0.023 | 2.01 ± 0.035
GAACUA | 1.9884 ± 0.0016 | 2 ± 0.055
AAACUA | 1.9744 ± 0.0006 | 2 ± 0.038
CAACUC | 2.06 ± 0.015 | 2.06 ± 0.024
GAACUC | 2.044 ± 0.0052 | 2.028 ± 0.012
UAACUC | 2.046 ± 0.0055 | 2.03 ± 0.045
AAACUC | 2.0456 ± 0.00044 | 2.03 ± 0.049
CAACUG | 2.029 ± 0.015 | 2.021 ± 0.016
GAACUG | 1.971 ± 0.0088 | 1.99 ± 0.028
CAACUU | 2.039 ± 0.012 | 2.03 ± 0.052
GAACUU | 2.002 ± 0.013 | 1.98 ± 0.028
AAACUU | 2.007 ± 0.0031 | 2.02 ± 0.024

Variant | normalized RNA/DNA level without ligand (log10) ((6R,S)-folinic acid [1]) | normalized RNA/DNA level with ligand (log10) ((6R,S)-folinic acid [2])
CAAGAC | 2.026 ± 0.0013 | 2.03 ± 0.038
UAAGAC | 1.984 ± 0.00031 | 2.01 ± 0.034
CAAGAU | 1.97 ± 0.009 | 2.01 ± 0.025
UAAGAU | 1.9446 ± 0.0012 | 2.01 ± 0.024
CAAGCC | 2.099 ± 0.01 | 2.03 ± 0.046
GAAGCC | 2.022 ± 0.0083 | 2.03 ± 0.047
UAAGCC | 2 ± 0.0023 | 2.03 ± 0.038
AAAGCC | 2.03 ± 0.013 | 2.05 ± 0.028
CAAGCG | 2.057 ± 0.015 | 2.062 ± 0.0093
AAAGCU | 2.003 ± 0.018 | 2.013 ± 0.013
GAAGGA | 1.952 ± 0.0097 | 2.009 ± 0.014
CAAGGC | 1.993 ± 0.019 | 1.99 ± 0.035
UAAGGC | 1.98 ± 0.023 | 2.01 ± 0.043
GAAGGG | 1.87 ± 0.00046 | 2.03 ± 0.043
CAAGGU | 1.976 ± 0.0082 | 1.97 ± 0.024
GAAGGU | 1.974 ± 0.0097 | 2.02 ± 0.043
UAAGGU | 1.844 ± 0.0031 | 1.967 ± 0.018
AAAGGU | 1.939 ± 0.0029 | 2.01 ± 0.032
CAAGUA | 1.9916 ± 0.0019 | 2.03 ± 0.045
UAAGUA | 1.896 ± 0.0077 | 1.98 ± 0.034
AAAGUA | 1.937 ± 0.014 | 2 ± 0.037
CAAGUC | 2.04 ± 0.021 | 2.02 ± 0.037
GAAGUC | 2.05 ± 0.021 | 2.04 ± 0.026
CAAGUG | 2 ± 0.028 | 1.98 ± 0.046

Variant | normalized RNA/DNA level without ligand (log10) ((6R,S)-folinic acid [1]) | normalized RNA/DNA level with ligand (log10) ((6R,S)-folinic acid [2])
AAAGUU | 1.972 ± 0.0027 | 2.01 ± 0.016
UAAUAA | 1.931 ± 0.0048 | 1.985 ± 0.013
CAAUAC | 1.984 ± 0.017 | 1.97 ± 0.038
UAAUAC | 1.941 ± 0.0049 | 1.96 ± 0.021
GAAUAG | 1.9357 ± 0.0015 | 2.01 ± 0.042
CAAUAU | 1.95 ± 0.025 | 2 ± 0.033
GAAUAU | 2.038 ± 0.015 | 2.02 ± 0.051
CAAUCA | 2.001 ± 0.0045 | 2.02 ± 0.033
UAAUCA | 1.945 ± 0.013 | 1.97 ± 0.04
AAAUCA | 1.996 ± 0.0046 | 2.02 ± 0.047
CAAUCC | 2.023 ± 0.0031 | 2.02 ± 0.049
GAAUCC | 2.023 ± 0.0051 | 2.02 ± 0.061
UAAUCC | 2.001 ± 0.0044 | 2.03 ± 0.03
CAAUCG | 2.024 ± 0.012 | 2.02 ± 0.0061
UAAUCG | 1.795 ± 0.012 | 1.988 ± 0.016
CAAUCU | 2.045 ± 0.0088 | 2.05 ± 0.028
GAAUCU | 2.011 ± 0.0071 | 2.04 ± 0.037
UAAUCU | 2.021 ± 0.012 | 2.046 ± 0.0022
AAAUCU | 2.0432 ± 0.0014 | 2.03 ± 0.048
CAAUGC | 2.03 ± 0.027 | 2.023 ± 0.02
GAAUGC | 1.943 ± 0.012 | 2 ± 0.036
CAAUGG | 1.94 ± 0.0094 | 1.983 ± 0.0083
CAAUGU | 1.981 ± 0.0089 | 1.98 ± 0.044
GAAUGU | 1.988 ± 0.015 | 2.01 ± 0.035

Variant | normalized RNA/DNA level without ligand (log10) ((6R,S)-folinic acid [1]) | normalized RNA/DNA level with ligand (log10) ((6R,S)-folinic acid [2])
AAAUGU | 1.9431 ± 0.0016 | 1.99 ± 0.028
UAAUUA | 1.991 ± 0.0035 | 2.01 ± 0.048
AAAUUA | 1.97 ± 0.012 | 1.99 ± 0.03
GAAUUC | 2.01 ± 0.0081 | 2.02 ± 0.024
UAAUUC | 2.01 ± 0.027 | 2.02 ± 0.031
CAAUUG | 2.014 ± 0.0049 | 2.06 ± 0.023
CAAUUU | 1.995 ± 0.0068 | 2 ± 0.032
GAAUUU | 2.029 ± 0.01 | 2.01 ± 0.022
UAAUUU | 1.979 ± 0.0057 | 2.01 ± 0.032
CACAAC | 2.004 ± 0.016 | 1.99 ± 0.05
UACAAC | 2.0034 ± 0.0014 | 2.02 ± 0.034
CACAAG | 1.961 ± 0.006 | 2.013 ± 0.02
GACAAG | 1.9442 ± 0.00015 | 2.008 ± 0.02
CACAAU | 1.954 ± 0.018 | 1.99 ± 0.057
GACAAU | 1.967 ± 0.012 | 1.99 ± 0.045
AACACA | 1.99 ± 0.011 | 2.01 ± 0.037
CACACC | 2.061 ± 0.0083 | 2 ± 0.073
GACACC | 2.026 ± 0.0065 | 1.98 ± 0.038
UACACC | 2.025 ± 0.011 | 1.99 ± 0.048
AACACC | 2.046 ± 0.015 | 2.05 ± 0.086
